From the supplement of paper PMC9170038 come the findings set out here.

For this series, the system named is MS2 coat protein. As to the kind of experiment: apparent KD of MS2 coat protein; designed switch direction (-1 OFF switch, 1 ON switch): -1; higher = weaker reporter binding. In a few lines: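 On Illumina chips, designed RNA switches with common flanks were made by stalled E. coli RNA polymerase. Titrations with SNAP-549-labelled MS2 coat protein, doubling from 0.7 or 1.5 nM to 3 µM, were done with no input, with 200 uM small-molecule ligand, or with an oligonucleotide input. Apparent KD is the median per design over clusters, from curve fits of normalised cluster fluorescence.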

The mark [1] stands for this setting: Eterna round: R95, input ligand: FMN 200 uM.
Setting [2] is: Eterna round: R95, input ligand: microRNA oligo, concentration not stated.
Setting [3] is: Eterna round: R95, input ligand: none.

Regarding “AAUACACAUGAGGAUCACCCAUGUCAGGAUAUGCGCAGACAGACAGACAGACAGACGAGCAGAAGGGAUAGGAA [Excls1-IV] (puzzle: Exclusion 1)”, the “apparent KD of MS2 coat protein” value by setting is: under setting [1], 0.054 µM; under setting [2], 0.0675 µM; under setting [3], 0.0493 µM.

With “AAGUACUACAAGCUUCGGGACAUGAGGAUCACCCAUGUUCGUCUUAUUGAUCUAGGUACGCUGACGUACCUAGAUCA [Mat - Sensor v3 - turn-off var 1 - JL Mod - D12] (puzzle: Sensor v3, turn-off variant 1)”, the “apparent KD of MS2 coat protein” value under setting [1] turned out to be 0.0149 µM, the “apparent KD of MS2 coat protein” value under setting [2] is 0.0594 µM and the “apparent KD of MS2 coat protein” value under setting [3] came to 0.0147 µM.

As for “UAUACUAGAUAGGAUAUACUAUAUAUAUUAUUCGUAGAAGGAUCUACAUGAGGAUCACCCAUGUUAACAGCAGU [JR_E6_Sub006] (puzzle: Exclusion 6)”, under setting [2], the “apparent KD of MS2 coat protein” value was 0.0372 µM.

For the sequence “GUGAGAUAGUUAGUGGACGACAUGAGGAUCACCCAUGUGAGGGAAAUGUUAAGGAGAAAGCUUUUUGCUCGUCUUUA [JR_SV3TOV1_Sub035] (puzzle: Sensor v3, turn-off variant 1)”, the “apparent KD of MS2 coat protein” value was found to be 0.0989 µM under setting [1], 0.0704 µM under setting [2] and 0.18 µM under setting [3].

In the case of “CAGCUGAAUGUGAGGAUAUUACGAGCCUCGGCUCGUGAGAAGGCACAUGAGGAUCACCCAUGUCUCAACAGCUG [BmEx4/2-B2] (Eterna round: R97, puzzle: Brourd's mod of Exclusion 4)”, the “apparent KD of MS2 coat protein” value is 0.759 µM (input ligand: FMN 200 uM) and 0.0362 µM (input ligand: none).

Regarding “GUGUAACUACACGGGCUCAACAUGAGGAUCACCCAUGUCAUACACGCAAGCUUUUUGCUUGUCUUAUCAGUCCGUGA [Rereerdiin] (puzzle: Sensor v3, turn-off variant 1)”, the “apparent KD of MS2 coat protein” value came to 0.013 µM under setting [1], 0.0134 µM under setting [2] and 0.0111 µM under setting [3].

In the case of “AACACACAUGAGGAUCACCCAUGUGAGGAUAUCGUCGAGGUUGUAAUGCCAACCGUGACGAGAAGGCACUUGGG [Exclusion 1 (Mod 3.1 solution 40 by Eternabot)] (Eterna round: R97, puzzle: Exclusion 1)”, the “apparent KD of MS2 coat protein” value by setting is: (input ligand: FMN 200 uM) 0.0444 µM; (input ligand: none) 0.282 µM.

For the sequence “AUAAAGAAUGUUAGGAUAUUGGUGAAUAGGCUGACUAAGAAGGAACAUGAGGAUCACCCAUGUAAAAUGGAAAA [Readima] (puzzle: Brourd's mod of Exclusion 4)”, the “apparent KD of MS2 coat protein” value was 0.0667 µM under setting [1], 0.023 µM under setting [2] and 0.0291 µM under setting [3].

For the sequence “AUCUUGUCAGGAUAUCUGACAAGUGACGAAAGUCACAGUUCAGAGAAGGUACAUGAGGAUCACCCAUGUAGAAC [Ex4-3: 40] (puzzle: Exclusion 4)”, the “apparent KD of MS2 coat protein” value under setting [2] is 0.0191 µM.

Regarding “AAUGGUAAAGUCAGGAUAUACGUAAAUCGUACUAGGUAGAAGGGACAUGAGGAUCACCCAUGUAUGAUAGUAAA [Ex4 #31] (Eterna round: R97, puzzle: Brourd's mod of Exclusion 4)”, the “apparent KD of MS2 coat protein” value by setting is: (input ligand: FMN 200 uM) 0.066 µM; (input ligand: none) 0.076 µM.

Regarding “AAAAUAAAAGUCAGGAUAUUCCUACAACGACUAAGGAAGAAGGGACAUGAGGAUCACCCAUGUGGUCUUCCGAA [Onesti] (puzzle: Brourd's mod of Exclusion 4)”, the “apparent KD of MS2 coat protein” value is, setting by setting: under setting [1], 0.0425 µM; under setting [2], 0.0178 µM; under setting [3], 0.0151 µM.

Turning to “CCGAAGUCCUGCGGAGUUCACAUGAGGAUCACCCAUGUAGGCGAGGAUAUUUAUGAUACAUGAGUAAAGAAGGCGUCUGGUAAA [Eternabot solution 26] (Eterna round: R96, puzzle: Exclusion NG 3)”, the “apparent KD of MS2 coat protein” value came out at 0.0407 µM (input ligand: FMN 200 uM); 0.0182 µM (input ligand: microRNA oligo, concentration not stated); 0.0291 µM (input ligand: none).
